Test results as given in the RNAGym collection of RNA variant scans (doi:10.1093/nar/gkz1192).

B1: CPEB3 Ribozyme (parent)
chain: UAACAGGGGGCCACAGCAGAAGCGUUCACGUCGCAGCCCCUGUCAGAUUCUGGUGAAUCUGCGAAUUCUGCUGUAUAUCUC

Variants of: B1
Assay: self-cleavage, relative activity (ratio to wild type); higher = more cleavage; in vitro, sequencing
Summary of the method: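 Barcoded CPEB3 ribozyme mutants, produced by rounds of error-prone PCR, self-cleaved while being transcribed with T7 RNA polymerase for 5 hours at 37°C and during a subsequent 15 min DNase I step before EDTA was added. Sequencing of template-switched cDNA on Illumina gave cleaved and total reads, and DNA sequencing assigned barcodes to variants. Each variant's relative activity is its cleaved/total read fraction divided by the unmutated ribozyme's fraction, averaged across three batches. A variant needed a minimum of 5 reads.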
For UAACAGGGGGCCACAGCAGAAGCGUUCACGUCGCAGCCCUUGUCAGAUUCUGGUGAAUCUGCGAAUUCUGCUGUAUCUCUC [C40U A77C], the self-cleavage was 0.74. For UAACAGGGGGCCACAGCAGAAGCGUUCACGUCGCAGCCCUUGUCAGAUUCUGGUGAAUCUGCGAAUUCUGCUGUAUGUCUC [C40U A77G], the self-cleavage was 0.58. Variant UAACAGGGGGCCACAGCAGAAGCGUUCACGUCGCAGCCCUUGUCAGAUUCUGGUGAAUCUGCGAAUUCUGCUGUAUUUCUC [C40U A77U] has a self-cleavage of 0.81. In the case of UAACAGGGGGCCACAGCAGAAGCGUUCACGUCGCAGCCCUUGUCAGAUUCUGGUGAAUCUGCGAAUUCGGCUGUAUAUCUC [C40U U69G], the self-cleavage is reported as 0.57. UAACAGGGGGCCACAGCAGAAGCGUUCACGUCGCAGCCCUUGUCAGAUUCUGGUGAAUCUGCGAAUUCAGCUGUAUAUCUC [C40U U69A] gave a self-cleavage of 0.41. In the case of UAACAGGGGGCCACAGCAGAAGCGUUCACGUCGCAGCCCUUGUCAGAUUCUGGUGAAUCUGCGAAUUCCGCUGUAUAUCUC [C40U U69C], the self-cleavage is reported as 0.36. UAACAGGGGGCCACAGCAGAAGCGUUCACGUCGCAGCCCGUGUCAGAUUCUGGUGAAUCCGCGAAUUCUGCUGUAUAUCUC [C40G U60C] gave a self-cleavage of 0.16. In the case of UAACAGGGGGCCACAGCAGAAGCGUUCACGUCGCAGCCCGUGUCAGAUUCUGGUGAAUCAGCGAAUUCUGCUGUAUAUCUC [C40G U60A], the self-cleavage is reported as 0.11. UAACAGGGGGCCACAGCAGAAGCGUUCACGUCGCAGCCCUUGUCAGAUUCUGGUGAAUCUGCGAAUUGUGCUGUAUAUCUC [C40U C68G] showed a self-cleavage of 0.28. With UAACAGGGGGCCACAGCAGAAGCGUUCACGUCGCAGCCCUUGUCAGAUUCUGGUGAAUCCGCGAAUUCUGCUGUAUAUCUC [C40U U60C] the self-cleavage was 0.3. Work on UAACAGGGGGCCACAGCAGAAGCGUUCACGUCGCAGCCCUUGUCAGAUUCUGGUGAAUCAGCGAAUUCUGCUGUAUAUCUC [C40U U60A] yielded a self-cleavage of 0.34. UAACAGGGGGCCACAGCAGAAGCGUUCACGUCGCAGCCCUUGUCAGAUUCUGGUGAAUCGGCGAAUUCUGCUGUAUAUCUC [C40U U60G] showed a self-cleavage of 0. UAACAGGGGGCCACAGCAGAAGCGUUCACGUCGCAGCCCUUGACAGAUUCUGGUGAAUCUGCGAAUUCUGCUGUAUAUCUC [C40U U43A] gave a self-cleavage of 0.92. For UAACAGGGGGCCACAGCAGAAGCGUUCACGUCGCAGCCCUUGCCAGAUUCUGGUGAAUCUGCGAAUUCUGCUGUAUAUCUC [C40U U43C], the self-cleavage was 0.39. For UAACAGGGGGCCACAGCAGAAGCGUUCACGUCGCAGCCCUUGUCAGAUUCUGGGGAAUCUGCGAAUUCUGCUGUAUAUCUC [C40U U54G], the self-cleavage was 0.6. With UAACAGGGGGCCACAGCAGAAGCGUUCACGUCGCAGCCCUUGUCAGAUUCUGGCGAAUCUGCGAAUUCUGCUGUAUAUCUC [C40U U54C] the self-cleavage was 0.7. Work on UAACAGGGGGCCACAGCAGAAGCGUUCACGUCGCAGCCCUUGUCAGAUUCUGGAGAAUCUGCGAAUUCUGCUGUAUAUCUC [C40U U54A] yielded a self-cleavage of 1.08. Variant UAACAGGGGGCCACAGCAGAAGCGUUCACGUCGCAGCCCUUGUCAGACUCUGGUGAAUCUGCGAAUUCUGCUGUAUAUCUC [C40U U48C] has a self-cleavage of 0.25. Variant UAACAGGGGGCCACAGCAGAAGCGUUCACGUCGCAGCCCUUGUCAGAUUCUGGUGAAUCUGCGAAUUCUGCUGUAUAUCUC [C40U] has a self-cleavage of 0.76. Work on UAACAGGGGGCCACAGCAGAAGCGUUCACGUCGCAGCCCUUGUCAGAUUCUGGUGAAUCUGCGUAUUCUGCUGUAUAUCUC [C40U A64U] yielded a self-cleavage of 0.27. Variant UAACAGGGGGCCACAGCAGAAGCGUUCACGUCGCAGCCCUUGUCAGAUUCUGGUGAAUCUGCGGAUUCUGCUGUAUAUCUC [C40U A64G] has a self-cleavage of 0.54. With UAACAGGGGGCCACAGCAGAAGCGUUCACGUCGCAGCCCUUGUCAGAUUCUGGUGAAUCUGCGAAUUCUGCUGUGUAUCUC [C40U A75G] the self-cleavage was 0.5. With UAACAGGGGGCCACAGCAGAAGCGUUCACGUCGCAGCCCUUGUCAGAUUCUGGUGAAUCUGCGAAUUCUGCUGUUUAUCUC [C40U A75U] the self-cleavage was 0.74. For UAACAGGGGGCCACAGCAGAAGCGUUCACGUCGCAGCCCUUGUCAGAUUCUGGUGAGUCUGCGAAUUCUGCUGUAUAUCUC [C40U A57G], the self-cleavage was 0.36. With UAACAGGGGGCCACAGCAGAAGCGUUCACGUCGCAGCCCUUGUCAGAUUCUGGUGACUCUGCGAAUUCUGCUGUAUAUCUC [C40U A57C] the self-cleavage was 0.46. In the case of UAACAGGGGGCCACAGCAGAAGCGUUCACGUCGCAGCCCUUGUCAGAUUCUGGUGAUUCUGCGAAUUCUGCUGUAUAUCUC [C40U A57U], the self-cleavage is reported as 0.61. For UAACAGGGGGCCACAGCAGAAGCGUUCACGUCGCAGCCCUUGUCAGAUUCUGGUGAAUCUGCGAAUUCUUCUGUAUAUCUC [C40U G70U], the self-cleavage was 0.16. UAACAGGGGGCCACAGCAGAAGCGUUCACGUCGCAGCCCGUGUCAGAUUCUGGUGAAUCUGCGAACUCUGCUGUAUAUCUC [C40G U66C] showed a self-cleavage of 0.22. In the case of UAACAGGGGGCCACAGCAGAAGCGUUCACGUCGCAGCCCUUGUCAGAUUCUGGUGAAUCUGCGAAUUCUGCUGUAUAUGUC [C40U C79G], the self-cleavage is reported as 1.24. Work on UAACAGGGGGCCACAGCAGAAGCGUUCACGUCGCAGCCCUUGUCAGAUUCUGGUGAAUCUGCGAAUUCUGCUCUAUAUCUC [C40U G73C] yielded a self-cleavage of 1.22. For UAACAGGGGGCCACAGCAGAAGCGUUCACGUCGCAGCCCUUGUCAGAUUAUGGUGAAUCUGCGAAUUCUGCUGUAUAUCUC [C40U C50A], the self-cleavage was 0.46. Work on UAACAGGGGGCCACAGCAGAAGCGUUCACGUCGCAGCCCUUGUCAGAUUCUGGUGAAUUUGCGAAUUCUGCUGUAUAUCUC [C40U C59U] yielded a self-cleavage of 0.28. With UAACAGGGGGCCACAGCAGAAGCGUUCACGUCGCAGCCCUUGUCAAAUUCUGGUGAAUCUGCGAAUUCUGCUGUAUAUCUC [C40U G46A] the self-cleavage was 0.18. For UAACAGGGGGCCACAGCAGAAGCGUUCACGUCGCAGCCCUUGUAAGAUUCUGGUGAAUCUGCGAAUUCUGCUGUAUAUCUC [C40U C44A], the self-cleavage was 0.52.
